Test: soluble on expression in E. coli; label from the status in PepcDB or PDB records

**Q.** For “MAKLTALTLLGMGLALFDRQKSSFQTRFNVHREVTPVELPNCNLVKGIDNGSEDLEILPNGLAFISSGLKYPGIMSFDPDKSGKILLMDLNEKEPAVSELEIIGNTLDISSFNPHGISTFIDDDNTVYLLVVNHPGSSSTVEVFKFQEEEKSLLHLKTIRHKLLPSVNDIVAVGPEHFYATNDHYFIDPYLKSWEMHLGLAWSFVTYYSPNDVRVVAEGFDFANGINISPDGKYVYIAELLAHKIHVYEKHANWTLTPLRVLSFDTLVDNISVDPVTGDLWVGCHPNGMRIFFYDAENPPGSEVLRIQDILSEEPKVTVVYAENGTVLQGSTVAAVYKGKLLIGTVFHKALYCDL”, which “soluble on expression in E. coli” value is on record?
**A.** Its value is “soluble”.

**Q.** With “MSLKICNFRAHYSPTMLSYVIIFMVEKMNYIKINLKLNNPLAFWANFSESERFFWFDPQKETFVIGCERLKAIDLEHDKFSDYTYLFHSQTFFDDIKGELWENFGGETIAFKHYFVVNKENSYTLTCDSPREIPEITIPKFKHQLTEKASDFSAWQELFYAIQKNFADGKSRKIVASRELEFTSQTSFELESIIQNLLDNNPNAFIFAYQKGKRIFLGASPEILVQKENDQLLSYALAGTFPKTMENAGQKLLTDPKNLLEHDIVVQKIKRNLLEKAETVTVGTTELMELKNVYHLRTILSAKNSELSLIDWTKQLHPTPALGGEPRHEALEFLRKHENHERGLYAAPLGLIDSKGNGTMIVGIRSALIVDKKLYAYAGCGIIPSSDALEEFRETKVKLKTILEALEGHHHHHH” as the sequence, how does the “soluble on expression in E. coli” value read?
**A.** Its value is “not soluble”.

**Q.** With “MHADLVIVGAGMVGSALALALEGSGLEVLLVDGGSLDVAPFKPEAPYEPRVSALSEASRRILQRLHAWDGIVARRAEPYREMQVWDGSGTGRIGFSAASVHAEVLGHIVENRVVQDALLERLHDSTTGLLANARLEQMRHSGDDWLLTLADGRQLRAPLVVAADGANSAVRRLAGCATREWDYLHHAIVTSVRCENAHRATAWQRFTDDGPLAFLPLPDRGDEHWCSIVWSTTPEQAERLMALDEDGFRAALGEAFEQRLGAILHADRRLCIPLRQRHAKRYVEPGLALVGDAAHTIHPLAGQGVNLGFLDAAVLSEVLLHALERGERLADERVLSRFERRRMPHNLGMMTAMEGFERLFQADRLPLRWLRNAGLRLVDGHHEAKALFVRQALGLSGDLPMLARVLEHHHHHH” as the sequence, how does the “soluble on expression in E. coli” value read?
**A.** Its value is “soluble”.

**Q.** With “MGSDKIHHHHHHMAGMQIQGMQIESIDIQNYRLFKQASLNKLSRLAVFVGENGAGKSTIFDVFSFLKDSLAQNAAKAVARRGGFKELVSRGTEGPISITLKFRETGGRLATYELSVAFEGGRVVVDREVLKFRRGQRGQPWHFVDFSRGRGTAVTNEAMYGKPGVKVERKEYILDEPTVLAIKGLGQFKEFRVVSEFRNLIENWHITDFHIADARPSAEEGYAEHLSTRGDNVAQVAQFLYDHHPDRFNNILDAMKRRIPGVEKVEAKPTEDGRLVLRFQDGAFKDPFIARYVSDGTIKMFAYLVLLHDPNPFPLLAVEEPENQLYPELLQELAEEFRDYARRGGQVFISTHSPEFMNGLYLDEIYWLSKKDGYSTIYRGADSEVLKRLVAEGDHPGALWRQGVFKGAW” as the sequence, how does the “soluble on expression in E. coli” value read?
**A.** The value was “not soluble”.

**Q.** With “MNGNQARNDIDEWLKTAACIKHPAGCVDQDGHSAFSDREGNLFQLAVPDAFSSLHLYGTLLELQPAVDGRVLASALAINAQKNVLRGSVIALNTENQELFVHHTVTLESLDRVALWQTLDNFVALTRELRSALRSQPVPAAKIESTHFNHLRRGF” as the sequence, how does the “soluble on expression in E. coli” value read?
**A.** The value was “not soluble”.

**Q.** Which “soluble on expression in E. coli” value does the source give for “MGSDKIHHHHHHMSRRTQIADMRLSSGVPGFDELIEGGLLPNRLYVVSGPPGSGKTTFCSQFITQGVKEGETCLYVTMHETKTELMQDMAGYDFGFDRAMQSDAIQFLNLVTESGKRTITQFGNEGGLTNRLVAYIRQNDIQRVVIDSTMLLQHFMADVEDEITGFLSALKQTDATTLLISEMTDPSSYSDEHYLAHGVVFFHNFLENGSMTRGVQVIKMRGTAIDCDIREISFSDAGLQVHTDRKVET” here?
**A.** Its value is “not soluble”.

**Q.** With “MSLRGALAGMLALGCLTTSTLAFERWTLEARGKSGYDAPKLEWVEGKTINEIKNPTIQYALPKFEGDVFWDTINAKPVVPDSIYGEFVQYGYELFVNTQAVIGPEVADPNMRYSGNNLSCNSCHLGAGTAKYAAPLVDNHANFPQYRNRENSLGTMAARVNGCMQRSMNGYPLPAEGKEMKAFLAYIHWLGQGIPVGAKIEGRSLKTVDRKMVQQNAADVKNGAEVYARDCASCHGAEGEGLRRESKDGKPAGYEFPPLWGSDDTYNTGAGMYRTLKAADFIKSTMPKGAPTLSDKDAYDVAAFINDYSHYRTVKLNRQNDFVDPKVRVPDHDQPGPYGPEGSYIFPDEGKTQMDYKVGPYKGIIKQKPAAKEGHHHHHH” as the sequence, how does the “soluble on expression in E. coli” value read?
**A.** Its value is “not soluble”.

**Q.** For “MNKRMKMCPACQQGYLYHSKPKYLHDEIILCDECDAVWLKGMNIFYGEYEKDFYSYVPFMESQGITSECIWEGDLFDHPYYEDENSNDMD”, which “soluble on expression in E. coli” value is on record?
**A.** The value was “not soluble”.

**Q.** Which “soluble on expression in E. coli” value does the source give for “MGSDKIHHHHHHMVKNDESQIFTKMRLTLVIPSLYSGGAERVLSIIANYWASKGWKVTLLTFCGNQPPFYDLDSRISYIPLHIARDSSNLIAAVKNNLYRIFKLRLAITASNPDIVISFMSEANVTTLLATRGLNVPVLVSERNNPKIRLTKSSIWVKLRQLTYPFAQRVIVQTQRALNYFPSSLKNRICVIPNPVLLPPNKPCKPQELFNKLPGQKLLIAVGRLESQKGFDLLLQAFANLKDDFSEWQLVILGEGILHLDLTELCHQLQLNGRVYFLGRVKNIYEFLQEADIYVMSSRFEGFPNALCEAMASGLPVISTDCPNGPREIIRDGIDGLLVPNEDVLALTSAIKLLMSDEEKRKNLATNASEIAERFSIDKIMEMWEFVVKDVVES” here?
**A.** Its value is “not soluble”.

**Q.** With “MGHHHHHHSHPAPAQLVQKAHELMWYVLVKDQKKMIIWFPDMVKDVIGSYKKWCRSILRRTSLILARVFGLHLRLTSLHTMEFALVKALEPEELDRVALSNRMPMTGLLLMILSLIYVKGRGARESAVWNVLRILGLRPWKKHSTFGDVRKLITEEFVQMNYLKYQRVPYVEPPEYEFFWGSRASREITKMQIMEFLARVFKKDPQA” as the sequence, how does the “soluble on expression in E. coli” value read?
**A.** The value was “not soluble”.

**Q.** Which “soluble on expression in E. coli” value does the source give for “SLKVAIFDAFNGASGDMILASLLGVGISEEEIDEVVKALGIDVNYSMTTVSVRGISARRVEVEERDGERSFKEVLEIIRSSNLEEGVKKNAIAVFELIARAEGKVHGRDYREGVFHEVGADDAIFDVVCCVKAFENLKTAGYEFFATPVRAGSGFVEFSHGKYPVPPPAVLEILKSSNLEVVMDGEGELLTPTGAAILSHYCKPLKPFPIRVKEVSYGAGKRETDVPNVLRLILGETAFHDSIVVIETSVDDLSGEMIGYAMKKLLERDDVLDAVIIPAYGKKMRPASILKVISPTHRSEEVAAEVMRLTGSLGIRIIPVHHRLISERMEEVVKVEISGKEFDVRVKRSYPGFRHLKPEFDDIAVIADELNIPPHVVYREIVRKIVGAENADSNGQ” here?
**A.** The value was “soluble”.

**Q.** Which “soluble on expression in E. coli” value does the source give for “MSLAGSWETYTMKVPSEKNLPTTKVVLKMPKDVEFQQYEPIPGWKVSTQKHDDKSVSVTWEATDGGIQEGQFQQFTFVAKNPDKAEEAAWDAYQYYKDGSIVEWTGDEDADTPHSITNITSAKQVTDEHGATKTEDDSENSGSSALDITAMVLSAAAIILSVAALVKKKRAEGHHHHHH” here?
**A.** Its value is “soluble”.

**Q.** For “MNRSNQDITQPTAIIAVVGVGAEQGIGAAVCRRFAQEKFKVYVAGRTLNKVEKVAAAIHRQGGQAVAYVLDAENEQQLQTLFDHLNDQPEALAAVIHNVGGNIPSIFLQSSLKFFSQMWRSTFLSSVLVAQRSLSIFQKQQQGTLIFTGASASLRGKPFFAAFSMGKSALRSYALNLAELYRSQNIHVAHVMVDGMVDGDRVNKALWGLGRLARLTRGTGGLNIDAIAENYWMLYQQNVDLWTHELDLRPYQEKF”, which “soluble on expression in E. coli” value is on record?
**A.** The value was “not soluble”.

**Q.** For “MGHHHHHHSHPRRLAWCSIDWEQVCLLQRLGAGGFGSVYKATYRGVPVAIKQVNKCTKNRLASRRSFWAELNVARLRHDNIVRVVAASTRTPAGSNSLGTIIMEFGGNVTLHQVIYGAAGHPEGDAGEPHCRTGGQLSLGKCLKYSLDVVNGLLFLHSQSIVHLDLKPANILISEQDVCKISDFGCSEKLEDLLCFQTPSYPLGGTYTHRAPELLKGEGVTPKADIYSFAITLWQMTTKQAPYSGERQHILYAVVAYDLRPSLSAAVFEDSLPGQRLGDVIQRCWRPSAAQRP”, which “soluble on expression in E. coli” value is on record?
**A.** Its value is “not soluble”.

**Q.** With “MVDKLKQQNCTISTCESLTAGLMAATIANLPGSSQVLRGGLITYATDSKVSVAGVPGATVEEHGPVSWQCAEAMAIGAKRQFQSQWAVSLTGVAGPATQCGQPVGTVWIGVALPNGTVKSKLVADILCGPGQVVAGDRQTIRLAAVRAAAMWITDLLGLEYTNEN” as the sequence, how does the “soluble on expression in E. coli” value read?
**A.** Its value is “not soluble”.

**Q.** Which “soluble on expression in E. coli” value does the source give for “MAHHHHHHMNGLRISTYFSAFKMRWMLENVPKVEEARKRGTLCFGTIDAWLLWKLSGGKVFVTDVTNASRTFLMDIRTCKWSPELCDKLGIPMACLPEIRSNSELLTYVLSDEGGLSAALRHPTPIMGSIADQQGALLGNMCFKEGESKNTYGTGCFLLMTVGEKIRFSSHGLLSTVAYQIGNKSPFIYALEGSIAGAGATIEWLKNNMKLIDDVSDCEKFAQTVSDTHGVVFVPAFSGFLAPSWDPSARGSIFGMTLKTTRAHVLRAALLAIALQVVDVLEAMEKDAEVKVQFLRVDGGLTKNHLLMKMQSDLLGINLHRPTMAETTALGAALCAGLAAGVWKSLEEVKTISQQANVWRVIRPAASKDSQQMLRAQWKRAKQQAKWAKL” here?
**A.** Its value is “not soluble”.

**Q.** Which “soluble on expression in E. coli” value does the source give for “GSHMEEKLAVSLQEALQEGDTRALREVLEEIHPQDLLALWDELKGEHRYVVLTLLPKAKAAEVLSHLSPEEQAEYLKTLPPWRLREILEELSLDDLADALQAVRKEDPAYFQRLKDLLDPRTRAEVEALARYEEDEAGGLMTPEYVAVREGMTVEEVLRFLRRAAPDAETIYYIYVVDEKGRLKGVLSLRDLIVADPRTRVAEIMNPKVVYVRTDTDQEEVARLMADYDFTVLPVVDEEGRLVGIVTVDDVLDVLEAEATEDIHKLGAVDVPDLVYSE” here?
**A.** Its value is “soluble”.

**Q.** With “MDYQLYTLPSGLHVVYKPHAGEVTYAGFAIGVGTRHESSRHHGLAHLTEHMLFKGTSLRNSLQIIRRMEEVGAELNAFTEKESTYVYCIFPKAHFNRATNLLFDIVQHSRFPEEELTKEKTVVIDEIDSYRDNPSELIFDEFENILFRHHPLGHNILGTEASVSRITGQIGRNFLRRHYRPDNMIFFLAGEADLSDWPLNPAEKVSIRNTDGTPLHTLREGFLPRTIRRHKDTYQHHILMGGPAYSLHDDRRIPLSLLNNILGGPGMNSRLNLSLREEHGYVYNVESNYTPYSDTGVFNIYLGCAPRYAEAAMELVRKELRYLIEHPLSPIELESAKRQFKGQLIVSADNKESTFLSLGKSMLLYGKYDPLSDIFHRIDAITSDRLREIAAEVLNPDSMLTLIYC” as the sequence, how does the “soluble on expression in E. coli” value read?
**A.** Its value is “not soluble”.

**Q.** With “MNFNVIICGVGGQGVVLASRLLAITAMNSGFHVNTAETLGMSQREGSVVSHLQFGENIKSSLIPEGSTDLIIGLEVSEVARNIHFLKKDGKIITNSNLILPSARSSNEKYDSEKIINFIKEKVKSTICIDFSKIAKVAGNPKSMNVSVLSAAFYTGFLPLEYEDFLKTIESEIPEKYRDINLNATKLSAETISNMLEGHNE” as the sequence, how does the “soluble on expression in E. coli” value read?
**A.** The value was “not soluble”.

**Q.** Which “soluble on expression in E. coli” value does the source give for “MFQALLTKLKNNAALGAAANNLNKFRSSNLGNQRRSVSVAVTSTSPKSEKPVAREHMIYDETHFVMQKSLGKLIEEKINPNVAKWEQDGRYPAHLVFKMLGDHGVFGVNKPEAFGGTGTDIAMATAIAEQMGAINCGSIPMSVMVQTDMSTPALAQFGSDALRERFLRPSITGDLVSSLAVSEPHAGSDVSAVHTHARRQGSDLIINGSKMWITNGGQADWACVLVNTSNTSNVHKNKSLVCVPLDAVGVHRSTPLDKLGMRSSDTVQLFFEDVRVPSSYIIGEEGRGFGYQMKQFNDERLVTVAVGLLPLQKCIDETIEYARDRLLFGKTLLDQQYIQFQLAELEAELEATRALLYRTVLARSRGDDVSMLTAMAKLKIGRLARAITDQCLQVWGGAGYLNENGISRAFRDFRLFSIGAGCDEVMMRIIHKAQSRRQLKKA” here?
**A.** The value was “not soluble”.

— the DeepSol protein solubility set
